Assay results published in patent US10087225B2, “Formulation of MK2 inhibitor peptides” (MOERAE MATRIX, INC., priority 2015, dated 2018).

Tests used:
HCAVSMCs = test: Flow cytometric intracellular uptake, retention and half-life (2 h treatment); conditions: fluorescence 0 and 5 days after treatment removal; listed as MK2i
Method: (§1) HCAVSMCs were grown to 80-90% confluence, harvested, and seeded at 20,000 cells/well in a 24 well plate and allowed to adhere overnight in low serum media (DMEM, 1% FBS, and 1% P/S). […] Following treatment, cells were washed with PBS −/−, washed with CellScrub buffer (Genlantis) for 10 minutes at room temperature to remove extracellular polyplexes and/or peptide, washed 2× in PBS −/−, and given fresh complete growth media. Cells were then incubated for an additional 0, 12, 24, 72, or 120 hours. Cells were then washed with PBS −/−, trypsinized, and resuspended in 0.1% Trypan blue in PBS (−/−) for analysis on a FACSCalibur flow cytometer (Becton Dickinson) with BD CellQuest™ Pro software (V 5.2). Data was exported and analyzed with FlowJo software (V 7.6.4). All samples were run in triplicate.

[1] = human, HCAVSMCs, 10 μM, intracellular half-life (t1/2), fluorescence 0 and 5 days after treatment removal
Method: as §1

[2] = Heat-accelerated stability of MMI-0100 in buffers pH 4-8 (pH, appearance, HPLC assay, impurities); conditions: in citrate
Excerpt: Testing of stability samples included pH (initial only), appearance, HPLC assay and impurities. CC=clear and colorless.

Hck(h) = Hck(h) (Homo sapiens, UniProt P08631); test: Kinase Profiling Assay; assay type: biochemical; conditions: 100 μM
Rsk3(h) = Rsk3(h) (Homo sapiens, UniProt Q15349); test: Kinase Profiling Assay; assay type: biochemical; conditions: 100 μM
MAPK2(h) = MAPK2(h) (Homo sapiens, UniProt P28482); test: Kinase Profiling Assay; assay type: biochemical; conditions: 100 μM
Lck(h) = Lck(h) (Homo sapiens, UniProt P06239); test: Kinase Profiling Assay; assay type: biochemical; conditions: 100 μM
CDK2/cyclinA(h) = CDK2/cyclinA(h) (Homo sapiens, UniProt P24941); test: Kinase Profiling Assay; assay type: biochemical; conditions: 100 μM
CDK9/cyclin T1(h) = CDK9/cyclin T1(h) (Homo sapiens, UniProt P50750); test: Kinase Profiling Assay; assay type: biochemical; conditions: 100 μM
Ab1(Q252H)(h) = Ab1(Q252H)(h) (Homo sapiens, UniProt P00519, Q252H); test: Kinase Profiling Assay; assay type: biochemical; conditions: 100 μM
Ab1(H396P)(h) = Ab1(H396P)(h) (Homo sapiens, UniProt P00519, H396P); test: Kinase Profiling Assay; assay type: biochemical; conditions: 100 μM
EphA3(h) = target: T1, EphA3(h) (Homo sapiens, UniProt P29320); test: Kinase Profiling Assay; assay type: biochemical; conditions: 100 μM
T1 sequence (P29320 21-983): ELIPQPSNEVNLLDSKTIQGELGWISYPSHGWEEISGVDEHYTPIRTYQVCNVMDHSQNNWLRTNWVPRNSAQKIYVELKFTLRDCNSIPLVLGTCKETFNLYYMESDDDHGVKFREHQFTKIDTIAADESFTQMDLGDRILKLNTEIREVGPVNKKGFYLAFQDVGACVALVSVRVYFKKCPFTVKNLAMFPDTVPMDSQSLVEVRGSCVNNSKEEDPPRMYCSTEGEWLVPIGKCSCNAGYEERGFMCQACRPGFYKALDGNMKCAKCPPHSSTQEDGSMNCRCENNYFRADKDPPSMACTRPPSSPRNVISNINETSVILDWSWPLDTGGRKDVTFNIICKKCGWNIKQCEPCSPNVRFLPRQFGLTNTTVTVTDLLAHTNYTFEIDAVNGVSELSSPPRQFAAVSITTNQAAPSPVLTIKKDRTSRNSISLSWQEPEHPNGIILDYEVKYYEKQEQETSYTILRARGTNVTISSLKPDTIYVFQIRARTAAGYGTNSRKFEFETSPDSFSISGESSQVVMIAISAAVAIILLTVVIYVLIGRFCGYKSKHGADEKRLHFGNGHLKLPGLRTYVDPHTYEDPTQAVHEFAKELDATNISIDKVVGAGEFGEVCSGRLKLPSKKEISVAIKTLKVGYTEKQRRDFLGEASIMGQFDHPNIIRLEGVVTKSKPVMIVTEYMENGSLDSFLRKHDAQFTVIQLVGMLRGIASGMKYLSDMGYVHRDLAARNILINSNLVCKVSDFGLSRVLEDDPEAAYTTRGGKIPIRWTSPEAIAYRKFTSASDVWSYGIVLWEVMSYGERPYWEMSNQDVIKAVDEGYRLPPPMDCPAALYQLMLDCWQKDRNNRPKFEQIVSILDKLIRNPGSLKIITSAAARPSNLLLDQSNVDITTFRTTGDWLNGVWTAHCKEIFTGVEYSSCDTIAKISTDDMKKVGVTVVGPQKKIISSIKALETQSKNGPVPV

PDGFRα(D842V)(h) = PDGFRα(D842V)(h) (Homo sapiens, UniProt P16234, D842V); test: Kinase Profiling Assay; assay type: biochemical; conditions: 100 μM
CHK2(h) = CHK2(h) (Homo sapiens, UniProt O96017); test: Kinase Profiling Assay; assay type: biochemical; conditions: 100 μM
SAPK4(h) = target: T2, SAPK4(h) (Homo sapiens, UniProt O15264); test: Kinase Profiling Assay; assay type: biochemical; conditions: 100 μM
T2 sequence (O15264 1-365): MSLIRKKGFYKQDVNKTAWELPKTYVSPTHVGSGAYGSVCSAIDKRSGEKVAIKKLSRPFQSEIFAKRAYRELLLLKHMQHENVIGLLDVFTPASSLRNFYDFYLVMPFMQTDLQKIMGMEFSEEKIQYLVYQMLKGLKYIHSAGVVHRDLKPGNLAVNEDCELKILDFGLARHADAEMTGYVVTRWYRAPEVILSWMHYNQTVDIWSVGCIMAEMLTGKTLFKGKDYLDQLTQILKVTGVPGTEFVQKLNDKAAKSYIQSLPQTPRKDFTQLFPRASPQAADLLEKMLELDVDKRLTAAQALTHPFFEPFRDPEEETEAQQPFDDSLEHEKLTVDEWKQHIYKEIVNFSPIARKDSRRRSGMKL

CDK3/cyclinE(h) = CDK3/cyclinE(h) (Homo sapiens, UniProt Q00526); test: Kinase Profiling Assay; assay type: biochemical; conditions: 100 μM
LIMK1(h) = LIMK1(h) (Homo sapiens, UniProt P53667); test: Kinase Profiling Assay; assay type: biochemical; conditions: 100 μM
MARK1(h) = MARK1(h) (Homo sapiens, UniProt Q9P0L2); test: Kinase Profiling Assay; assay type: biochemical; conditions: 100 μM
VRK2(h) = VRK2(h) (Homo sapiens, UniProt Q86Y07); test: Kinase Profiling Assay; assay type: biochemical; conditions: 100 μM
GRK5(h) = GRK5(h) (Homo sapiens, UniProt P34947); test: Kinase Profiling Assay; assay type: biochemical; conditions: 100 μM
Plk1(h) = Plk1(h) (Homo sapiens, UniProt P53350); test: Kinase Profiling Assay; assay type: biochemical; conditions: 100 μM
CK1γ3(h) = CK1γ3(h) (Homo sapiens, UniProt Q9Y6M4); test: Kinase Profiling Assay; assay type: biochemical; conditions: 100 μM
IGF-1R(h) = IGF-1R(h) (Homo sapiens, UniProt P08069); test: Kinase Profiling Assay; assay type: biochemical; conditions: 100 μM

CHK2(h), sequence (O96017 whole entry): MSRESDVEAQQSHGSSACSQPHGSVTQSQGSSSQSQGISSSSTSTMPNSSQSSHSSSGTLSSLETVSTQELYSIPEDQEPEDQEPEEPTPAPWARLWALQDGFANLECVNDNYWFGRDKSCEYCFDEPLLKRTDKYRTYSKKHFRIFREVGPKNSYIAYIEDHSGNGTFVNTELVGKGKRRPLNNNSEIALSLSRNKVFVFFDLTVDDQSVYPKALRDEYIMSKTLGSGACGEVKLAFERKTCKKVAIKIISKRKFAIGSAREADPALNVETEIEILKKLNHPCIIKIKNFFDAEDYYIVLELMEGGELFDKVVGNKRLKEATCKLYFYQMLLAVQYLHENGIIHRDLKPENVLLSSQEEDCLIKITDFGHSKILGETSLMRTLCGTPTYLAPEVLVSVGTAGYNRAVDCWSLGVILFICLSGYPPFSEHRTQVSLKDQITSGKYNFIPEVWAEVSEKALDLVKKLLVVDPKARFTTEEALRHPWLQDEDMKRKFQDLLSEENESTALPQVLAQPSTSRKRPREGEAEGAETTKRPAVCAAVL
CDK3/cyclinE(h), sequence (Q00526 whole entry): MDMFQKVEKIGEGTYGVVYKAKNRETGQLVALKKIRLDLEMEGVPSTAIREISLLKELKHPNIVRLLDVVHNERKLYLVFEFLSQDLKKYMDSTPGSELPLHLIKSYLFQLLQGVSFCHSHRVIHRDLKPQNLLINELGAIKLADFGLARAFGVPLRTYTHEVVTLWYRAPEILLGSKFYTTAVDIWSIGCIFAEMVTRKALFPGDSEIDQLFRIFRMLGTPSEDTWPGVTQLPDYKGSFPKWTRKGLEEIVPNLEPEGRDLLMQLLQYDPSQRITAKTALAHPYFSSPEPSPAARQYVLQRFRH
CDK3/cyclinE(h), sequence (P24864 whole entry partner): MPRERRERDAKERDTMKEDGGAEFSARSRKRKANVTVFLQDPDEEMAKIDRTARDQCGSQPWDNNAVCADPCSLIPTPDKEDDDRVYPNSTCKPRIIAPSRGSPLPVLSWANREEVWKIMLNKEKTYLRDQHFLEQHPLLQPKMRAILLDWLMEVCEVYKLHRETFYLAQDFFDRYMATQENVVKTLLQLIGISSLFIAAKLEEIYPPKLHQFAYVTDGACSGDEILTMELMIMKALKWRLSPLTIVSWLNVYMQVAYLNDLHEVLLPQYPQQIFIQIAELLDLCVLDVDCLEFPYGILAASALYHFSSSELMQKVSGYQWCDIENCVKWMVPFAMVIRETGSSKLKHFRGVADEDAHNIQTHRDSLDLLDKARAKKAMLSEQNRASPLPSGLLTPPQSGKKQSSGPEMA
CK1γ3(h), sequence (Q9Y6M4 whole entry): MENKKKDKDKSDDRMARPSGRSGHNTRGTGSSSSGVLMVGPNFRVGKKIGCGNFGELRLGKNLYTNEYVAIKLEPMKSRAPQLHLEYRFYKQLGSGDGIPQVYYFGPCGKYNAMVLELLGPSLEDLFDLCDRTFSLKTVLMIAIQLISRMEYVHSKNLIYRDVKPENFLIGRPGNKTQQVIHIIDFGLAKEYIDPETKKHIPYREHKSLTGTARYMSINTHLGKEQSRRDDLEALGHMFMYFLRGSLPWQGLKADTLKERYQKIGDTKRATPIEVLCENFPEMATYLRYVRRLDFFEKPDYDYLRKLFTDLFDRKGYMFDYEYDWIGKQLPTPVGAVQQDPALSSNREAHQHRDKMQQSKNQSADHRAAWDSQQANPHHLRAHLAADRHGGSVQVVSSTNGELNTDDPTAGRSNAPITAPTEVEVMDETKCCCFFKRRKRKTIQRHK
MAPK2(h), sequence (P28482 whole entry): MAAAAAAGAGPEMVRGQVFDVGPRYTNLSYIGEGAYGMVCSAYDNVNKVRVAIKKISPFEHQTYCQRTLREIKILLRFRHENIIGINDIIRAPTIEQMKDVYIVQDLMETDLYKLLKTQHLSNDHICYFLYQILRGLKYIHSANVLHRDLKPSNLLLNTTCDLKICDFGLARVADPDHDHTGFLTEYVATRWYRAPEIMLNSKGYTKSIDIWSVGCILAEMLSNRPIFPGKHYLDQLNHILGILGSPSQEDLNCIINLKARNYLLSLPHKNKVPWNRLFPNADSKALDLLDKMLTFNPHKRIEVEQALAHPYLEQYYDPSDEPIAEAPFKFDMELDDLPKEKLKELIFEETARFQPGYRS
Lck(h), sequence (P06239 whole entry): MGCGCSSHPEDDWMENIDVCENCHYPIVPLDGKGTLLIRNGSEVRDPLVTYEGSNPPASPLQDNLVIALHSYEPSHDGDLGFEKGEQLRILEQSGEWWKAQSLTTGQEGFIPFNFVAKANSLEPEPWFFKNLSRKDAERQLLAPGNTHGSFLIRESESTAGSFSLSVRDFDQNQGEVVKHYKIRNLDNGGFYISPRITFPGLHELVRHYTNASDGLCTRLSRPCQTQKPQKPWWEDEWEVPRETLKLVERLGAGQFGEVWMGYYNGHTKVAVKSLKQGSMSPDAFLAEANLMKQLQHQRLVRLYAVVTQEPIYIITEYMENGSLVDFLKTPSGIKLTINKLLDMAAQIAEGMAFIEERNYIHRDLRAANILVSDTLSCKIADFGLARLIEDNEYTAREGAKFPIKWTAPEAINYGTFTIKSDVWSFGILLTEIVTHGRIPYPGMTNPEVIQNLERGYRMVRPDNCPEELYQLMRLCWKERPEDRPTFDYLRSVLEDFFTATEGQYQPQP
CDK9/cyclin T1(h), sequence (P50750 whole entry): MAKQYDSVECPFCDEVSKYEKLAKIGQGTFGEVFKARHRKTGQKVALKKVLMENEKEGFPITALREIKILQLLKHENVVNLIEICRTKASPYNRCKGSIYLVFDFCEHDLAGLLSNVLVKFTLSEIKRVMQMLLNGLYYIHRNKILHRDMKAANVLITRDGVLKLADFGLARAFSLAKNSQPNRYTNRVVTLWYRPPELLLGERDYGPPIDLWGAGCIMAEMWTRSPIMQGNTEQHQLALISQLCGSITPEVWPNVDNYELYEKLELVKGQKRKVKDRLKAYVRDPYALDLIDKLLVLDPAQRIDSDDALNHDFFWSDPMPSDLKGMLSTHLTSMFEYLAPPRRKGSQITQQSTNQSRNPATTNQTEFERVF
CDK9/cyclin T1(h), sequence (O60563 whole entry partner): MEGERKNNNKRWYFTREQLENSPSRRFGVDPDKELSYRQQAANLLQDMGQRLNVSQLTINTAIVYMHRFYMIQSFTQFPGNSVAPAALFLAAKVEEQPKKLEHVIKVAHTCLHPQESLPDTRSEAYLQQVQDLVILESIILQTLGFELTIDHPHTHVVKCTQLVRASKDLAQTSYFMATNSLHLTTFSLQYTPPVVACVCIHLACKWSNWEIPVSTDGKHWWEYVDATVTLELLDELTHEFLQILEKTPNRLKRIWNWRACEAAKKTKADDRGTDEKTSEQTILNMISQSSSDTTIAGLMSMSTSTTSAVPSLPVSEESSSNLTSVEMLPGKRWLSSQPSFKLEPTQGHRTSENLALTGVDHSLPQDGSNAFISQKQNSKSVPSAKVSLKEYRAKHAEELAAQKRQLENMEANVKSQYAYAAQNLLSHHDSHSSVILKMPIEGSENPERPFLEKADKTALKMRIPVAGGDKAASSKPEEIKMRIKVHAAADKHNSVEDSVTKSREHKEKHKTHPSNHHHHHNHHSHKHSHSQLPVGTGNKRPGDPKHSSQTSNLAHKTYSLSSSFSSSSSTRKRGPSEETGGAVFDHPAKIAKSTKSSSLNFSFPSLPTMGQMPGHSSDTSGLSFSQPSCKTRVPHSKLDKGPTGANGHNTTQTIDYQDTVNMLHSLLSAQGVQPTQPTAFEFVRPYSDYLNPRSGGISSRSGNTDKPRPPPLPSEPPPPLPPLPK
MARK1(h), sequence (Q9P0L2 whole entry): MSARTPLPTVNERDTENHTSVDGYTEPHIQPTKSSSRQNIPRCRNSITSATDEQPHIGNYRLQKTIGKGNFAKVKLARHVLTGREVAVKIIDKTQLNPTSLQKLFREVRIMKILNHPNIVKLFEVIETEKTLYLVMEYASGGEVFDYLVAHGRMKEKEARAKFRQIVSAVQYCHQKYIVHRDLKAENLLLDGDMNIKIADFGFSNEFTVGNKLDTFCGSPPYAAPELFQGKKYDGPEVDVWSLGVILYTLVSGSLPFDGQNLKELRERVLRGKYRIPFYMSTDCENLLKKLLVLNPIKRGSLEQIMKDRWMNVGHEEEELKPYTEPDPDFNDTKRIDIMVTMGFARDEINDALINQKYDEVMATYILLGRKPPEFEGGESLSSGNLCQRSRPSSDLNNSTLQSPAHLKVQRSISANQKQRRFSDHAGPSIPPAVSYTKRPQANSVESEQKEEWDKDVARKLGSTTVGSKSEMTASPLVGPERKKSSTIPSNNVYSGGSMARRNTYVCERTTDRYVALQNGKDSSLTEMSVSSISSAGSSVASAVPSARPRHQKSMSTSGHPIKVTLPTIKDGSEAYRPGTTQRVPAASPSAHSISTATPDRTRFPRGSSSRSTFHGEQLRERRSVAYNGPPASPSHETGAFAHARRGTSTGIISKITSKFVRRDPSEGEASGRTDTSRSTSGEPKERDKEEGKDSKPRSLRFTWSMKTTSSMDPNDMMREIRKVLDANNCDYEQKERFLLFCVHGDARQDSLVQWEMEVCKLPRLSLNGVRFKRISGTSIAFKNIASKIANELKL
Hck(h), sequence (P08631 whole entry): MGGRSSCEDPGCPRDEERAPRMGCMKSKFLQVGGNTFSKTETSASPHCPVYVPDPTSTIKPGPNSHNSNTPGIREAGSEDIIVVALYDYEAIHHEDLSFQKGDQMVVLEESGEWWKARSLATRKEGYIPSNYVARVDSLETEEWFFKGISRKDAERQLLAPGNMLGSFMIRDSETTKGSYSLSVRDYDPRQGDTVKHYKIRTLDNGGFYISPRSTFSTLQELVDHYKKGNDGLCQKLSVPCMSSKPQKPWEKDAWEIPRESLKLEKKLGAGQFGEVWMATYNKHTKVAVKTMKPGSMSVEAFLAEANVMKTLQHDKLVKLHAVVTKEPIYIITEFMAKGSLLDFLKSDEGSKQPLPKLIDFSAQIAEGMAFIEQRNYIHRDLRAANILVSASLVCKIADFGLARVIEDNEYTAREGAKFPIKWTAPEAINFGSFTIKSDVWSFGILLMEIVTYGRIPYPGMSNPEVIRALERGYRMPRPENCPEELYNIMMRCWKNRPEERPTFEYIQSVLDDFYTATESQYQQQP

## H-YARAAARQARAKALARQLGVAA-OH [MMI-0100]
HCAVSMCs
  intracellular half-life (t1/2): 98.4 h
[1]
  half-life: 96 h
[2]
  pH of greatest stability: 6

## HRRIKAWLKKIKALARQLGVAA (Mammalian) [MMI-0500]
Hck(h)
  % activity: 78%
Rsk3(h)
  % activity: 23%
MAPK2(h)
  % activity: 60%
Lck(h)
  % activity: 359%
CDK2/cyclinA(h)
  % activity: 87%
CDK9/cyclin T1(h)
  % activity: 6%
Ab1(Q252H)(h)
  % activity: 40%
Ab1(H396P)(h)
  % activity: 51%
EphA3(h)
  % activity: 33%
PDGFRα(D842V)(h)
  % activity: 170%
CHK2(h)
  % activity: 13%
SAPK4(h)
  % activity: 48%
CDK3/cyclinE(h)
  % activity: 8%
LIMK1(h)
  % activity: 87%
MARK1(h)
  % activity: 110%
VRK2(h)
  % activity: 169%

## YARAAARQARAKALNRQLGVA (Mammalian) [MMI-0200]
GRK5(h)
  % activity: 135%
Plk1(h)
  % activity: 128%
CK1γ3(h)
  % activity: 96%
IGF-1R(h)
  % activity: 49%
